Laboratory results: doi:10.1101/2021.04.07.438830 (bioRxiv, 2021)

Target: T1, GST-KPC2 (UniProt Q9BSL1 1-405)
T1 sequence: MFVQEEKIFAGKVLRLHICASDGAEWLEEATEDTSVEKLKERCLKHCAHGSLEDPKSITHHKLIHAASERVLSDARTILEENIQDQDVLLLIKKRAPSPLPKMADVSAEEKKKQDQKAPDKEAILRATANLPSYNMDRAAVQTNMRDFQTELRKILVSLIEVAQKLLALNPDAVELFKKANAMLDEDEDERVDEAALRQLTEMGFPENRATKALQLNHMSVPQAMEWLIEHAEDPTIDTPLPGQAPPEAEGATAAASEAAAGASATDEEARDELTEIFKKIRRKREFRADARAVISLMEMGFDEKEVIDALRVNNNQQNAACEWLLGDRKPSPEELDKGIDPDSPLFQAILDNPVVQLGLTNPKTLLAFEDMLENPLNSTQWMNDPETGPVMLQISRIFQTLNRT
Experiment: pull-down

B1: GST-p65 (1-307) (domain or fragment)
chain: MDELFPLIFPAEPAQASGPYVEIIEQPKQRGMRFRYKCEGRSAGSIPGERSTDTTKTHPTIKINGYTGPGTVRISLVTKDPPHRPHPHELVGKDCRDGFYEAELCPDRCIHSFQNLGIQCVKKRDLEQAISQRIQTNNNPFQVPIEEQRGDYDLNAVRLCFQVTVRDPSGRPLRLPPVLSHPIFDNRAPNTAELKICRVNRNSGSCLGGDEIFLLCDKVQKEDIEVYFTGPGWEARGSFSQADVHRQVAIVFRTPPYADPSLQAPVRVSMQLRRPSDRELSEPMEFQYLPDTDDRHRIEEKRKRTYE
Q: Does B1 bind?
A: binds
